B1: IgG418 full antibody (antibody, V domains shown)
VH: QVQLQQSGPGLVKPSQTLSLTCAISGGSVSSNSAAWNWIRQSPSRGLEWLGRTYYRSKWYNDYAVSVKSRITINPDTSKNQFSLQLNSVTPEDTAVYYCARDALAAAGTYGYYYYYGMDVWGQGTMVTVSS
VL: QSALTQPASVSGSPGQSITISCTGTSSDVGGYNYVSWYQQHPGKAPKLVIYEGTQRPSGVSSRFSGSKSGNTASLTISGLQAEDEADYYCSSYTSSSFYVFGTGTKLTVLG
notes: also called IgG418 WT; IgG418-WT
B2: afucosylated IgG418 (antibody, V domains shown)
VH: B1 VH
VL: B1 VL
modifications: afucosylated glycan (produced in FUT8 knockout CHO-K1 cells)

What was measured:
[1] = target: T1, CD38 on the surface of Daudi cells (human, UniProt P28907 1-300); assay: cell-based or functional assay
[2] = target: T2, recombinant biotinylated CD38-avi protein (extracellular domain of human CD38) (human, UniProt P28907 43-300, biotinylated (avi tag)); assay: capture ELISA: antibody captured by anti-human Fc, biotinylated CD38-avi 0.5 ug/ml, fit in GraphPad Prism
T2 construct: Bought from ACRO biosystems; also called CD38 recombinant protein; not shown: avi tag
Method: After 6 washes, plate was incubated with 1:1000 diluted streptavidin-HRP (BD Bioscience) in PBS™ at RT for 30 min.

[3] = target: T1, CD38 on the surface of Daudi cells; assay: flow cytometry on Daudi cells, anti-human IgG-Alexa647, fit in GraphPad Prism
Method: Daudi cells were washed twice with PBS and incubated for 1 hour on ice with serially diluted antibodies in FACS buffer (PBS containing 2% FBS) as indicated in table 2. Cells were washed three times with PBS and incubated with 1:200 diluted anti-human IgG-Alexa647 in FACS buffer for 30 min at 4° C. in darkness. After three times wash with PBS, cells were analyzed using flowcytometer.

Binder	CDC IC50 on Daudi cells (ratio of live P1 cells, 7AAD flow cytometry) [1] [nM]	maximal ADCC activity on Daudi cells relative to Darzalex (Jurkat effector, luciferase) [1] [fold]	Kd [2] [nM]	Kd [3] [nM]	ADCC IC50 on Daudi cells relative to Darzalex (Jurkat effector, luciferase) [1] [fold]
B1	9.8	1.4	0.082	3.1	–
B2	–	1.6	–	–	~10
